The target in series [1] is T1, IL-10Rα.G7.A3.G7 I-OnuI homing endonuclease variant (Artificial (Ophiostoma novo-ulmi I-OnuI …)).
T1 chain: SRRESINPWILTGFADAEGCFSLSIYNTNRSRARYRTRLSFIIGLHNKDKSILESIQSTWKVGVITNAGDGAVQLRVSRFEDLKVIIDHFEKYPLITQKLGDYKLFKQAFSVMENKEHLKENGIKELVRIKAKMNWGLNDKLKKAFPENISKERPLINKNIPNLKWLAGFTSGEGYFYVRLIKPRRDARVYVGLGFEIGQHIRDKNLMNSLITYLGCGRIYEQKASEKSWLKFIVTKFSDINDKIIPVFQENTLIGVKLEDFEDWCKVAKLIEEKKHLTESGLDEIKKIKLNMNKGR
In words: flow; yeast surface display substrate titration; stated as sub-nanomolar affinity, exact value only in figure. Particulars: tags: yeast surface display.

Series [2] concerns the target T2, IL-10Rα.G7.A3 I-OnuI homing endonuclease variant (Artificial (Ophiostoma novo-ulmi I-OnuI …)).
T2 chain: T1 chain with S55N, Y176H
In words: cell_activity; chromosomal mCherry reporter in HEK 293T; variant isolated by display sorting under 50 pM affinity conditions. As for the experimental part:
The activity of reprogrammed I-OnuI HEs that target exon 2 of the IL-10Rα gene was measured using a chromosomally integrated fluorescent reporter system (Certo et. al., 2011). Fully reprogrammed I-OnuI HEs that bind and cleave the IL-10Rα target sequence were cloned into mammalian expression plasmids and then individually transfected into a HEK 293T […] cell line that was reprogrammed to contain the IL-10Rα target sequence upstream of an out-of-frame gene encoding the fluorescent mCherry protein. Cleavage of the embedded target site by the HE and the subsequent accumulation of small insertions or deletions, caused by DNA repair via the non-homologous end joining (NHEJ) pathway, results in approximately one out of three repaired loci placing the fluorescent reporter gene back “in-frame”. mCherry fluorescence is therefore a readout of endonuclease activity at the chromosomally embedded target sequence. […] FIG. 3.
A secondary I-OnuI variant library was generated by performing random mutagenesis on one of the reprogrammed I-OnuI HEs that targets the IL-10Rα target site, identified in the initial reporter screen (IL-10Rα.G7, SEQ ID NO: 6). In addition, display-based flow sorting was performed under more stringent affinity conditions (50 pM) to isolate variants with improved binding characteristics. FIG. 3. […]

Results on one molecule are retold here after patent publication US20190309274, “IL-10 RECEPTOR ALPHA HOMING ENDONUCLEASE VARIANTS, COMPOSITIONS, AND METHODS OF USE” (bluebird bio, Inc., published 2019).

Positions count from the first letter of the chain named.

B1: IL-10Rα exon 2 HE target site (dsDNA)
DNA 1: GGTGGAAAAATTCTGCTTCAAA
DNA 2: TTTGAAGCAGAATTTTTCCACC
In the case of B1, the Kd in series [1] is < 1 nM. The activity in series [2] was ~2 fold vs IL-10Rα.G7.
